Experimental data reported in PMC6210743, “Starch Synthesis in Ostreococcus tauri: The Starch-Binding Domains of Starch Synthase III-B Are Essential for Catalytic Activity” (Frontiers in Plant Science, 2018).

Substrate: Nc1ncnc2c1ncn2[C@@H]1O[C@H](COP(=O)(O)OP(=O)(O)O[C@H]2O[C@H](CO)[C@@H](O)[C@H](O)[C@H]2O)[C@@H](O)[C@H]1O
Assay: Pi release by alkaline phosphatase from ADP, Malachite Green assay
Type: biochemical, Ostreococcus tauri
Conditions: 2 mg/ml glycogen as acceptor, 50 mM BICINE pH 8.0, 30°C, nH 0.57
Description: Pi release by alkaline phosphatase from ADP, Malachite Green assay on OsttaSSIII-B CD

B1: OsttaSSIII-B CD (Ostreococcus tauri) (protein)
chain: LHVCHIAVEMAPIAKVGGLADVVTAIGRAIQDNGHLVEIILPKYQFFNNSVLLGGKEYETHFDWAGTTIRVEKCKVEGLQCFFIEPQNNMFQTDSVYGRNDDAHRFNFFCNAALEFLVRTARQPDILHCHDWSSAEVARAYWEHYHHNGLTKPKVAFTIHNMNYGQAKLGEAVHHSQVATTVSPSYAGEVRGSPVIGNNGHKFTGVRNGIDPEIWDPETDIFVPVKYNADNQEEGKAAARAELRQRAGMTGWDDKPIVGVVSRLTAQKGVHLIKHAAHHTLSRGGQFVLLGSAPDPKIQGEFNGLANQLGGEDTGFFFAFDEPLSHLMYAGCDVILVPSMFEPCGLTQMISMRYGAVPVVRATGGLRDTVFDVDNEKERAAWEVGGSTDWKTDGDMTNGFSFEGTDEGSLNYALDRCLDAFYNDREWFRSLQKRVMLQDWSWNRPANDYEELYYKMIGR
K0.5: 0.12 ± 0.04 mM | Vmax: 0.76 µmol/min/mg
